Experimental data as given in IntAct's records for PubMed 10357812.

B1: Synaptojanin-2 (Rattus norvegicus (Rat)), O55207-3 (parent)
chain: MALSKGLRLLARLDPTGPSSVLLEARGRGDCLLFEAGAVATLAPEEKEVIKGLYGKPTDAYGCLGELSLKSGGVPLSFLVLVTGCTSVGRIPDAEIYKITGTEFYPLQEEAKEEDRLPALKKILSSGVFYFAWPNDGACFDLTIRAQKQGDDCSEWGTSFFWNQLLHVPLRQHQVNCHDWLLKVICGVVTIRTVYASHKQAKACLISRISCERAGARFLTRGVNDDGHVSNFVETEQAIYMDDGVSSFVQIRGSVPLFWEQPGLQVGSHHLRLHRGLEANAPAFERHMVLLKEQYGQQVVVNLLGSRGGEEVLNRAFKKLLWASCHAGDTPMINFDFHQFAKGRKLEKLENLLRPQLKLHWDDFGVFAKGENVSPRFQKGTLRMNCLDCLDRTNTVQCFIALEVLHLQLESLGLNSKPITDRFVESFKAMWSLNGHGLSKVFTGSRALEGKAKVGKLKDGARSMSRTIQSNFFDGVKQEAIKLLLVGDVYNEESTDKGRMLLDNTALLGLGSNKQNSLSGMLDGKATPRILKAMTERQSEFTNFKRIQIAMGTWNVNGGKQFRSNLLGTTELTDWLLDAPQLSGAVDSQDDGGPADIFAVGFEEMVELSAGNIVNASTTNRKMWGEQLQKAISRSHRYILLTSAQLVGVCLYIFVRPYHVPFIRDVAIDTVKTGMGGKAGNKGAVGIRFQFHSTSFCFICSHLTAGQSQVKERNEDYREITHKLSFPSGRNIFSHDYVFWCGDFNYRIDLTYEEVFYFVKRQDWKKLMEFDQLQLQKSSGKIFKDFHEGTINFGPTYKYDVGSAAYDTSDKCRTPAWTDRVLWWRKKHPYDKTAGELNLLDSDLDGDANIRHTWSPGTLKYYGRAELQASDHRPVLAIVEVEVQEVDVGARERVFQEVSSVQGPLDATVIVNLQSPTLEERNEFPEDLRTELMQTLGNYGTIILVRINQGQMLVTFADSHSALSVLDVDGMKVKGRAVKIRPKTKDWLEGLREELIRKRDSMAPVSPTANSCLLEENFDFTSLDYESEGDVLEDDEDYLADEFGQPVVSDSELGGDDSSDTMSASTPASKSPALAKKKQHPTYKDDADLMTLKLELEVAGNFRHRSPSRSLSVPNRPRPPHPPQRPPPPTGLMVKKSASDASISSGTHGQYSILQTAKLLPGAPQQPPKARTGISKPYNVKQIKTTNAQEAEAAIRCLLEAGGGVPESAPGATPLRNQGSSKPEASLGPPVLPRRPVPRVPTMKKPTLRRTGKIVFCSSSQASQPCSLLQRHEFVRTVAAQRLTPVDASGSSV
partner: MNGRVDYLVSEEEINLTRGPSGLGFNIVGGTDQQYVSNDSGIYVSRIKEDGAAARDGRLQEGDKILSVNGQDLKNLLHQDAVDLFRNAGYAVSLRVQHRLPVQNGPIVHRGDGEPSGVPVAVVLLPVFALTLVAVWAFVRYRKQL

Variants of: B1
Conditions: with syj2b_rat Synj2bp

effect of a mutation on the interaction | Variant
disrupting interaction | S1291A
disrupting interaction | G1290A
disrupting interaction | V1293A
